Results published in paper PMC4911631.

Key:
[1] = target: PRX1, recombinant (Chlamydomonas reinhardtii)
[2] = target: PRX1, recombinant (Chlamydomonas reinhardtii); remark: listed apart in the source

Row | maximal electron transfer rate to PRX1 at saturating Ca2+ against WT CRX (Supplementary Fig. 1b) [1] | reduction of PRX1 by CRX (NADPH oxidation) without Ca2+ (EGTA added) against with Ca2+ [2] | Substance
1 | 3 fold | – | calredoxin (CRX) Lys263Ile, recombinant (enzyme)
2 | – | 10 fold | calredoxin (CRX), wild type, recombinant (enzyme)
